System: human periosteum derived cells (hPDCs)
Assay: Gene expression of bone markers in hPDCs in 2D culture (Taqman PCR)
Format: cell-based
Conditions: two stage protocol, six factors minus one, 4 days
Experimental: Same experimental design as in A. C) Identification of factors involved in osteoblast maturation. hPDCs were treated with OM and TGFβ1 for 6 days, followed by stimulation with GM (negative control), GM containing six factors or GM supplement with six minus one factor for 4 days. The factors are ascorbic acid (Asc. Ac., 57 μM), TNFα (50 ng/ml), IL6 (10 ng/ml), EGF (20 ng/ml), Ca (6 mM) and Pi (4 mM). To evaluate osteoblast maturation, gene expression of RUNX2, OSX, DLX5, iBSP, OC and RANKL is measured with Taqman PCR. […] Gene expression is expressed as fold increase as compared to the GM condition. […] Gene expression is expressed as fold increase as compared to hPDCs cultured in OM/TGFβ1 (n=3, error bars: standard deviations, *p≦00.05, Mann-Whitney U test).
Cell culture. […] For in vitro osteogenic differentiation assays, passage 6 to passage 9 hPDCs (pool of four different donors) were seeded at 3000 cells/cm^2 in either 96-well plates to assess proliferation and alkaline phosphatase activity or in the middle eight wells of a 24-well plate for quantifying gene expression. […]
Quantitative PCR. […]

B1: EGF: growth factor ligand, 20 ng/ml (protein, UniProt P01133 23-1207, looked up)
Pro-epidermal growth factor: PQHWSCPEGTLAGNGNSTCVGPAPFLIFSHGNSIFRIDTEGTNYEQLVVDAGVSVIMDFHYNEKRIYWVDLERQLLQRVFLNGSRQERVCNIEKNVSGMAINWINEEVIWSNQQEGIITVTDMKGNNSHILLSALKYPANVAVDPVERFIFWSSEVAGSLYRADLDGVGVKALLETSEKITAVSLDVLDKRLFWIQYNREGSNSLICSCDYDGGSVHISKHPTQHNLFAMSLFGDRIFYSTWKMKTIWIANKHTGKDMVRINLHSSFVPLGELKVVHPLAQPKAEDDTWEPEQKLCKLRKGNCSSTVCGQDLQSHLCMCAEGYALSRDRKYCEDVNECAFWNHGCTLGCKNTPGSYYCTCPVGFVLLPDGKRCHQLVSCPRNVSECSHDCVLTSEGPLCFCPEGSVLERDGKTCSGCSSPDNGGCSQLCVPLSPVSWECDCFPGYDLQLDEKSCAASGPQPFLLFANSQDIRHMHFDGTDYGTLLSQQMGMVYALDHDPVENKIYFAHTALKWIERANMDGSQRERLIEEGVDVPEGLAVDWIGRRFYWTDRGKSLIGRSDLNGKRSKIITKENISQPRGIAVHPMAKRLFWTDTGINPRIESSSLQGLGRLVIASSDLIWPSGITIDFLTDKLYWCDAKQSVIEMANLDGSKRRRLTQNDVGHPFAVAVFEDYVWFSDWAMPSVMRVNKRTGKDRVRLQGSMLKPSSLVVVHPLAKPGADPCLYQNGGCEHICKKRLGTAWCSCREGFMKASDGKTCLALDGHQLLAGGEVDLKNQVTPLDILSKTRVSEDNITESQHMLVAEIMVSDQDDCAPVGCSMYARCISEGEDATCQCLKGFAGDGKLCSDIDECEMGVPVCPPASSKCINTEGGYVCRCSEGYQGDGIHCLDIDECQLGEHSCGENASCTNTEGGYTCMCAGRLSEPGLICPDSTPPPHLREDDHHYSVRNSDSECPLSHDGYCLHDGVCMYIEALDKYACNCVVGYIGERCQYRDLKWWELRHAGHGQQQKVIVVAVCVVVLVMLLLLSLWGAHYYRTQKLLSKNPKNPYEESSRDVRSRRPADTEDGMSSCPQPWFVVIKEHQDLKNGGQPVAGEDGQAADGSMQPTSWRQEPQLCGMGTEQGCWIPVSSDKGSCPQVMERSFHMPSYGTQTLEGGVEKPHSLLSANPLWQQRALDPPHQMELTQ
modifications: Pro-epidermal growth factor
notes: growth factor ligand, 20 ng/ml
RANKL expression in medium devoid of the factor: lower levels
role in DLX5 transcription: required

From patent US20150307846A1, “GROWTH FACTOR COCKTAIL TO ENHANCE OSTEOGENIC DIFFERENTIATION OF MESENCHYMAL CELLS” (University of Pennsylvania, priority 2012, published 2015)
